Consider five molecules from patent US20240207461A1, “RADIOACTIVE ANTITUMOR AGENT” (NIHON MEDI-PHYSICS CO., LTD., priority 2021, published 2024).

The subject of data set [1] is SW1990 tumor-bearing mice. Description: SPECT-CT imaging of ^111In-labeled antibodies, VOI analysis and absorbed dose calculation. The data set is classed as in vivo, Balb/c nude mice. The following applies: for SPECT absorbed dose liver / SPECT absorbed dose tumor: half-life converted from ^111In to ^225Ac, sphere model; for SPECT absorbed dose liver: mean liver weight 1.15 g; for SPECT absorbed dose tumor: tumor volume assumed 150 mm^3; for maximum tolerated dose (threshold dose/absorbed dose): threshold dose of liver assumed to be 30 Gy. As for the experimental part:
To find an anti-MUC5AC antibody with high tumor accumulation ability and high maximum tolerated dose, various antibodies were labeled with ^111In, administered to tumor-bearing mice, and SPECT-CT imaging was performed. Cumulative amount of radioactivity and absorbed dose in tumor and liver were calculated and compared using the obtained images.
(§1) Human pancreatic cancer cell line SW1990 (0.7×10^7 cells) were subcutaneously administered to Balb/c nude mice (male) from the flank to the back thereof.
(§2) When the tumor size reached about 150-300 mm^3 14 days after transplantation of SW1990, various ^111In-labeled antibodies prepared in Reference Example 1-1 were administered from the tail vein of the mice. The tumor volume was calculated from the following calculation formula.
SPECT-CT imaging (small animal SPECT-CT apparatus: FX-3000, manufactured by Trifoil) was performed under the conditions in the following Table. The time points for imaging were 1, 6, 24, 48, 72, and 168 hr after administration. Image reconstruction was performed by the OSEM method for SPECT and the FBP method for CT. A VOI (volume of interest, three-dimensional ROI) analysis of the tumor and liver at each time point was performed. The count number per organ volume was corrected to % ID/g, the physical half-life was converted from ^111In to ^225Ac, the difference in physical half-life was corrected, and the time activity curve with the biological half-life added was obtained. The cumulative radioactivity amount was calculated from the integrated value of this time activity curve, and the absorbed dose was calculated in a sphere model (OLINDA/EXM ver2.0), and this was compared and examined for each antibody. However, for H01L03, a decrease in the time activity curve was not observed 168 hr after administration. Thus, the biological half-life was not considered and only the physical half-life was added.
When the threshold dose of liver was assumed to be 30 Gy, the maximum tolerated dose was estimated to be 3.90 MBq with a humanized antibody (H01L03) and 0.43 MBq with a chimeric antibody. The maximum tolerated dose (MBq) was calculated by threshold dose (Gy)/absorbed dose (Gy/MBq).
(§3) In the Table, the tumor volume was calculated assuming 150 mm^3 in the absorbed dose of SPECT. The absorbed dose of the liver was calculated based on the mean (1.15±0.14 g, n=19) of the weight of the mouse liver used in this Reference Example. The numerical value of the biodistribution was expressed by the mean±standard deviation of n=4 (however, n=3 for H02L04).

Data set [2] relates to SW1990 tumor-bearing mice. Description: Biodistribution and excretion route 168 hr after administration of ^111In-labeled antibodies. Format: in vivo, Balb/c nude mice. The following applies: for biodistribution at 168 hr after administration, blood / biodistribution at 168 hr after administration, kidney / biodistribution at 168 hr after administration, liver / biodistribution at 168 hr after administration, spleen / biodistribution at 168 hr after administration, tumor: ^111In-labeled antibody, tail vein, mean ± SD n=4 (n=3 for H02L04). Here is the method:
as §1, §2
A graph showing the results of confirming the biodistribution and the excretion route after the completion of SPECT-CT imaging 168 hr after administration are shown in FIG. 11.
as §3

Setting [3] is: ^111In-labeled antibodies, SPECT-CT up to 168 hr.

B1: H01L03: anti-MUC5AC humanized antibody, heavy chain variable region H01 (SEQ ID NO: 1), light chain L03 (SEQ ID NO: 7), tested ^111In-labeled via DOTA-PEG-peptide (conjugate)
VH: EVQLLESGGGLVQPGGSLRLSCAASGFTFSNYGMSWVRQAPGKGLEWVSTISNSGRYTYFPDSVKGRFTISRDNSKNTLYLQMNSLRAEDTALYYCTRHLDYANYDAMDYWGQGTLVTVSS
VL: DIQMTQSPSSLSASVGDRVTITCRASKSVTTSDFSYMHWYQQKPGKSPKLLIYLASNLESGVPSRFSGSGSGTDFSLTISSLQPEDFATYYCQHSREFPWTFGGGTKVEIK
modifications: 111In-DOTA-PEG-peptide label; Humanaized antibody heavy chain variable region 1 (H01); Humanaized antibody light chain variable region 3 (L03)
Turning to B1, the “decrease in the time activity curve” value in data set [1] (168 hr after administration) was “not observed”. Moreover, the “accumulation in the tumor (comparison among antibodies)” value in data set [1] (setting [3]) is listed as “highest”. Also, in data set [1], the “SPECT absorbed dose liver” value is listed as 7.7 Gy/MBq, the “SPECT absorbed dose tumor” value was 35.0 Gy/MBq and the “maximum tolerated dose (threshold dose/absorbed dose)” value is 3.90 MBq. In data set [2] (168 hr after administration), the blood retention result is “high” and the excretion result was “slowest”. In addition, in data set [2], the “biodistribution at 168 hr after administration, blood” value (from here on “biodistribution at 168 hr … blood”) amounted to 5.3 ± 1.3 % ID/g; the “biodistribution at 168 hr after administration, kidney” value (“biodistribution at 168 hr … kidney” below) came to 2.5 ± 0.4 % ID/g; the “biodistribution at 168 hr after administration, liver” value (“biodistribution at 168 hr … liver” below) turned out to be 3.6 ± 1.7 % ID/g; the “biodistribution at 168 hr after administration, spleen” value (shortened to “biodistribution at 168 hr … spleen”) stood at 5.4 ± 0.8 % ID/g. Moreover, the “biodistribution at 168 hr after administration, tumor” value (from here on “biodistribution at 168 hr … tumor”) in data set [2] amounted to 24.2 ± 3.9 % ID/g.

B2: H02L04: anti-MUC5AC humanized antibody, H02 (SEQ ID NO: 2) and L04 (SEQ ID NO: 8), tested ^111In-labeled (conjugate)
VH: LVQLVESGGGVVRPGGSLRLSCAASGFTFSNYGMSWIRQAPGKGLEWVSTISNSGRYTYFPDSVKGRFTISRDNAKNSLYLQMNSLRAEDTALYYCTRHLDYANYDAMDYWGQGTLVTVSS
VL: DIVMTQSPDSLAVSLGERATINCKASKSVTTSDFSYLHWYQQKPGQPPKLLIYLASNLESGVPDRFSGSGSGTDFTLTISSLQAEDVAVYYCQHSREFPWTFGGGTKLEIK
modifications: 111In label; Humanaized antibody heavy chain variable region 2 (H02); Humanaized antibody light chain variable region 4 (L04)
As to B2, in data set [1], the “SPECT absorbed dose liver” value is recorded as 27.0 Gy/MBq and the “SPECT absorbed dose tumor” value is listed as 13.7 Gy/MBq. Also, in data set [2], the “biodistribution at 168 hr … blood” value is given as 2.6 ± 2.3 % ID/g; the “biodistribution at 168 hr … kidney” value is recorded as 1.4 ± 1.0 % ID/g; the “biodistribution at 168 hr … liver” value was found to be 2.7 ± 0.7 % ID/g; the “biodistribution at 168 hr … spleen” value was determined as 4.0 ± 3.0 % ID/g. Further, the “biodistribution at 168 hr … tumor” value in data set [2] was 15.6 ± 6.2 % ID/g.

B3: H04L04: anti-MUC5AC humanized antibody, H04 (SEQ ID NO: 4) and L04 (SEQ ID NO: 8), tested ^111In-labeled (conjugate)
VH: EVQLLESGGGLVQPGGSLRLSCAVSGFTFSNYGMSWVRQAPGKGLEWVSTISNSGRYTYFPDSVKGRFTISRDNSRNTLYLQMNTLRAEDTAVYYCTRHLDYANYDAMDYWGQGTPVTVSS
VL: DIVMTQSPDSLAVSLGERATINCKASKSVTTSDFSYLHWYQQKPGQPPKLLIYLASNLESGVPDRFSGSGSGTDFTLTISSLQAEDVAVYYCQHSREFPWTFGGGTKLEIK
modifications: 111In label; Humanaized antibody heavy chain variable region 4 (H04); Humanaized antibody light chain variable region 4 (L04)
For the molecule B3, in data set [1], the “SPECT absorbed dose liver” value is 35.4 Gy/MBq and the “SPECT absorbed dose tumor” value is 15.0 Gy/MBq. Also, in data set [2], the “biodistribution at 168 hr … blood” value came out at 3.8 ± 0.7 % ID/g; the “biodistribution at 168 hr … kidney” value was 1.6 ± 0.2 % ID/g; the “biodistribution at 168 hr … liver” value was 3.9 ± 1.4 % ID/g; the “biodistribution at 168 hr … spleen” value turned out to be 3.4 ± 0.3 % ID/g. The “biodistribution at 168 hr … tumor” value in data set [2] is 17.2 ± 4.2 % ID/g.

B4: H01L04: anti-MUC5AC humanized antibody, H01 (SEQ ID NO: 1) and L04 (SEQ ID NO: 8), tested ^111In-labeled (conjugate)
VH: EVQLLESGGGLVQPGGSLRLSCAASGFTFSNYGMSWVRQAPGKGLEWVSTISNSGRYTYFPDSVKGRFTISRDNSKNTLYLQMNSLRAEDTALYYCTRHLDYANYDAMDYWGQGTLVTVSS
VL: DIVMTQSPDSLAVSLGERATINCKASKSVTTSDFSYLHWYQQKPGQPPKLLIYLASNLESGVPDRFSGSGSGTDFTLTISSLQAEDVAVYYCQHSREFPWTFGGGTKLEIK
modifications: 111In label; Humanaized antibody heavy chain variable region 1 (H01); Humanaized antibody light chain variable region 4 (L04)
For B4, in data set [1], the “SPECT absorbed dose liver” value was 33.4 Gy/MBq and the “SPECT absorbed dose tumor” value is on record as 15.3 Gy/MBq. Moreover, in data set [2], the “biodistribution at 168 hr … blood” value stood at 2.1 ± 0.8 % ID/g; the “biodistribution at 168 hr … kidney” value is on record as 1.1 ± 0.3 % ID/g; the “biodistribution at 168 hr … liver” value stood at 3.1 ± 0.9 % ID/g; the “biodistribution at 168 hr … spleen” value worked out at 3.8 ± 1.2 % ID/g. In data set [2], the “biodistribution at 168 hr … tumor” value is reported as 12.9 ± 2.6 % ID/g.

B5: chimeric antibody: anti-MUC5AC chimeric antibody disclosed in Patent Literature 1 (SEQ ID NOs: 23 and 24), tested ^111In-labeled (conjugate)
VH: EVKLVESGGVLVKSGGSLKLSCAVSGFTFSNYGMSWVRQTPEKRLEWVATISNSGRYTYFPDSVKGPFAISRDNAKNNLYLQMSSLRSADTALYYCTRHLDYANYDAMDYWGQGTSVTVSS
VL: DIVLTQSPASLAVSLGQRATISCRASKSVTTSDFSYMHWYQQKPGQPPKLLLYLASNLESGVPDRFSGSGSGYDFYLNIHPVEEEDAATYYCQHSREFPWTFGGGTKLEIK
modifications: 111In label; Kimeric antibody heavy chain variable region 7 (H07); Kimeric antibody light chain variable region 8 (L08)
B5: in data set [1] (setting [3]), the “accumulation in the liver (comparison among antibodies)” value was “highest” and the “accumulation in the tumor (comparison among antibodies)” value was “lowest”. For the same molecule, in data set [1], the “SPECT absorbed dose liver” value is given as 70.1 Gy/MBq, the “SPECT absorbed dose tumor” value is on record as 9.5 Gy/MBq and the “maximum tolerated dose (threshold dose/absorbed dose)” value was 0.43 MBq. Also, in data set [2], the “biodistribution at 168 hr … blood” value came out at 2.2 ± 0.6 % ID/g; the “biodistribution at 168 hr … kidney” value amounted to 1.8 ± 0.3 % ID/g; the “biodistribution at 168 hr … liver” value was found to be 7.9 ± 1.9 % ID/g; the “biodistribution at 168 hr … spleen” value was found to be 5.0 ± 1.8 % ID/g. Besides, in data set [2], the “biodistribution at 168 hr … tumor” value came out at 11.6 ± 0.9 % ID/g.
